According to patent publication US20100278838A1, “EPHA2 MONOCLONAL ANTIBODIES AND METHODS OF USE THEREOF” (MEDIMMUNE, LLC, priority 2002, published 2010):
“Also recorded” adds a separate entry of the source.

Experiments:
EphA2 = EphA2 tyrosine phosphorylation in MDA-MB-231 cells (immunoprecipitation, phosphotyrosine western blot); assay type: cell-based; conditions: MDA-MB-231 monolayers, single dose 5 μg/ml, 37° C.
Experimental: FIGS. 2A-2D: EphA2 antibodies promote EphA2 tyrosine phosphorylation in MDA-MB-231 cells. Monolayers of MDA-MB-231 cells were incubated in the presence of a single dose of 5 μg/ml (A, C) Eph099B-208.261 or (B, D) EA2 for the indicated time at 37° C. Cell lysates were then immunoprecipitated with an EphA2-specific antibody, resolved by SDS-PAGE and subjected to western blot analysis with a phosphotyrosine-specific antibody (A, B). The membranes were stripped and re-probed with the EphA2-specific antibody used in the immunoprecipitation as a loading control (C, D).
Monolayers of MDA-MB-231 cells were incubated in the presence of a single dose of 5 μg/ml Eph099B-233.152 at 37° C. Cell lysates were then immunoprecipitated with D7 (an EphA2-specific antibody), resolved by SDS-PAGE and subjected to western blot analysis with (A) a phosphotyrosine-specific antibody or (B) an EphA2-specific antibody.
EphA2 antibodies promoted tyrosine phosphorylation and degradation of EphA2 in MDA-MB-231 cells. Monolayers of cells were incubated in the presence of EphA2 agonistic antibodies or control at 37° C. Cell lysates were then immunoprecipitated with an EphA2-specific antibody (D7, purchased from Upstate Biologicals, Inc., Lake Placid, N.Y. and deposited with the American Type […] Collection on Dec. 8, 2000, and assigned ATCC number PTA 2755), resolved by SDS-PAGE and subjected to western blot analysis with a phosphotyrosine-specific antibody (PY20 or 4G10, purchased from Upstate Biologicals, Inc., Lake Placid, N.Y.). […] Some membranes were stripped and re-probed with the EphA2-specific antibody used in the immunoprecipitation (D7) as a loading control (FIGS. 2C-2D).
Western blot analyses and immunoprecipitations were performed as described previously (Zantek et al., 1999, Cell Growth Diff. 10:629-38, which is incorporated by reference in its entirety). […] Antibody binding was detected by enhanced chemiluminescence (Pierce, Rockford, Ill.) and autoradiography (Kodak X-OMAT; Rochester, N.Y.).

[1] = test system: MDA-MB-231 breast cancer cells implanted subcutaneously; assay: Tumor growth and survival in vivo, MDA-MB-231 implanted subcutaneously; set-up: species or system athymic mice; conditions: for Growth of MDA-MB-231 cells implanted subcutaneously: 6mg/kg intraperitoneally twice a week for 3 weeks, versus PBS or 1A7
Experimental: MDA-MB-231 cells were implanted subcutaneously into athymic mice. After the tumors had grown to an average volume of 100 mm^3, mice were administered 6 mg/ml Eph099B-233.152 or PBS control intraperitoneally twice a week for 3 weeks. (A) Tumor Growth. Tumor growth was assessed and expressed as a ratio of the tumor volume divided by initial tumor volume (100 mm^3). Control mice are indicated by circles and Eph099B-233.152-treated mice are indicated by squares. Arrows indicate time of Eph099B-233.152 or PBS administration. (B) Survival. Tumor growth was allowed to proceed until tumor volume reached 1000 mm^3. Survival of the mice was assessed by scoring the percent of mice living each day post treatment. Control mice are indicated by grey and Eph099B-233.152-treated mice are indicated by black.
FIGS. 7A-7D: The EphA2 antibodies, EA2, Eph099B-208.261, and Eph099B-233.152, inhibit tumor cell growth in vivo. MDA-MB-231 breast cancer cells were implanted (A) orthotopically or (B) subcutaneously into athymic mice. (C) A549 lung cancer cells were implanted subcutaneously into athymic mice. After the tumors had grown to an average volume of 100 mm^3, mice were administered 6 mg/kg of the indicated antibody or negative control (PBS or 1A7 antibody) intraperitoneally twice a week for 3 weeks. Tumor growth was assessed and expressed as a ratio of the tumor volume divided by initial tumor volume (100 mm^3). (D) MDA-MB-231 breast cancer cells were implanted subcutaneously into athymic mice. After the tumors had grown to an average volume of 100 mm^3, mice were administered 6 mg/kg of the indicated antibody or negative control intraperitoneally twice a week for 3 weeks. Total tumor volume was determined after sacrifice. Negative control is black, EA2 is white, Eph099B-208.261 is dark grey, and Eph099B-233.152 is light grey.
The ability of the antibodies of the invention to inhibit tumor cancer growth in vivo was assayed. Eph099B-233.152 can inhibit tumor cell growth in vivo and extend survival time of tumor-bearing mice. Briefly, 5×10^6 MDA-MB-231 breast cancer cells were implanted subcutaneously into athymic mice. After the tumors had grown to an average volume of 100mm^3, mice were administered 6mg/ml Eph099B-233.152 or PBS control intraperitoneally twice a week for 3 weeks. Tumor growth was assessed and expressed as a ratio of the tumor volume divided by initial tumor volume (100 mm^3). […] Tumor growth was allowed to proceed until tumor volume reached 1000 mm^3. Survival of the mice was assessed by scoring the percent of mice living each day post treatment. […] By day 36, all of the mice in the control group had died in contrast with only 70% of the mice admixture Eph099B-233.152.
5×10^6MDA-MB-231 breast cancer cells were implanted orthotopically or subcutaneously and 5×10^6 A549 lung cancer cells were implanted subcutaneously into athymic mice. After the tumors had grown to an average volume of 100 mm^3, mice were administered 6mg/kg of an EphA2 agonistic antibody or negative control (PBS or 1A7 antibody) intraperitoneally twice a week for 3 weeks. Animals were generally sacrificed at least two weeks after the last treatment or when tumors exceeded 2000 mm^3. Tumor growth was assessed and expressed either as a ratio of the tumor volume divided by initial tumor volume (100 mm^3) or as total tumor volume. Growth of MDA-MB-231 cells implanted orthotopically was inhibited by EA2 (FIG. 7A). Growth of MDA-MB-231 cells implanted subcutaneously was inhibited by EA2, Eph099B-208.261, and Eph099B-233.152 (FIG. 7B, D). Growth of A549 cells implanted subcutaneously was inhibited by EA2, or Eph099B-208.261 (FIG. 7C).

Sequence of EphA2 (P29317 24-976): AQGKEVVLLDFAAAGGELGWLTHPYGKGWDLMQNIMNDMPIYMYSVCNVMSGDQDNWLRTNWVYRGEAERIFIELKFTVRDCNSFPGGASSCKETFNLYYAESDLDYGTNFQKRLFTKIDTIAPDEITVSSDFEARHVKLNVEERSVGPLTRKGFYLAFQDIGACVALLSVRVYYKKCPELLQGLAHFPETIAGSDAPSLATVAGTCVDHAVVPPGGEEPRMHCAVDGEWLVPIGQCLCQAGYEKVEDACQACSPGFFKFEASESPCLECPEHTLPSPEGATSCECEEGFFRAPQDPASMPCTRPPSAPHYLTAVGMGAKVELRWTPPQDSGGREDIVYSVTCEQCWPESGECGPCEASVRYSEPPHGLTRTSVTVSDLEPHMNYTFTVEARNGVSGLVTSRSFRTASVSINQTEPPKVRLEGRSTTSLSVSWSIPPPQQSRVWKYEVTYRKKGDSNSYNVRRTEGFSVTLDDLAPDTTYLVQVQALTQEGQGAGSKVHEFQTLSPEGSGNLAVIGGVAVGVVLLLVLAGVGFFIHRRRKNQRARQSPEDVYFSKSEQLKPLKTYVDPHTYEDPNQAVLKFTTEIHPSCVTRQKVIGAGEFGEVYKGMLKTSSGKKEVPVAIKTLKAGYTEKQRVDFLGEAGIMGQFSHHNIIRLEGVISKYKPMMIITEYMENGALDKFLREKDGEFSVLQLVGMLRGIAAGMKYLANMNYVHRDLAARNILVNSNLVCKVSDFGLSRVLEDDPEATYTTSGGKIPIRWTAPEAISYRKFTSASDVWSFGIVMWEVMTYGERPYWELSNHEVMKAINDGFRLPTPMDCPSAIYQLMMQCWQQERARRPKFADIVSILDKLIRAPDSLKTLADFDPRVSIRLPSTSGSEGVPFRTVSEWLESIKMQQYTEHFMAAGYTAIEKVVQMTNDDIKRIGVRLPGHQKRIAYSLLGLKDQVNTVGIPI

B1: EA2: EphA2 agonistic monoclonal antibody; ATCC deposit no. PTA-4380; co-pending application Ser. No. 10/436,783; VL SEQ ID NO:33, VH SEQ ID NO:37 (antibody, listed as Homo Sapiens, V domains shown)
VH: DVKLVESGGGLVKPGGSLKLSCAASGFTFSSYTMSWVRQTPEKRLEWVATISSGGTYTYYPDSVKGRFTISRDNAKNTLYLQMSSLKSEDTAMYYCTREAIFTYWGQGTLVTVSA
VL: DIKMTQSPSSMYASLGERVTITCKASQDINNYLSWFQQKPGKSPKTLIYRANRLVDGVPSRFSGSGSGQDYSLTISSLEYEDMGIYYCLKYDEFPYTFGGGTKLEIK
EphA2 tyrosine phosphorylation (EphA2): increased EphA2 phosphorylation
Growth of MDA-MB-231 cells implanted subcutaneously [1]: inhibited

B2: Eph099B-208.261: EphA2 monoclonal antibody; hybridoma ATCC PTA-4573; VL SEQ ID NO:1, VH SEQ ID NO:5 (antibody, listed as Homo sapiens, V domains shown)
VH: QVQLQQPGAELVKPGASVKLSCKASGYTFTSYWMHWVKQRPGQGLEWIGMIHPNSGSTNYNEKFKSKATLTVDKSSSTAYMRLSSLTSEDSAVYYCARGGNMVGGGYWGQGTTLTVSS
VL: QIVLTQSPALMSASPGEKVTMTCSASSSVSYMYWYQQKPRSSPKPWIYLTTNLASGVPARFSGSGSGTSYSLTISSMEAEDAATYYCQQWSSNPFTFGSGTKLEIR
EphA2 tyrosine phosphorylation (EphA2): increased EphA2 phosphorylation
Growth of MDA-MB-231 cells implanted subcutaneously [1]: inhibited

B3: Eph099B-233.152: EphA2 monoclonal antibody; hybridoma ATCC PTA-5194; VL SEQ ID NO:17, VH SEQ ID NO:21 (antibody, listed as Homo sapiens, V domains shown)
VH: EVKLVESGGGLVQPGGSLSLSCAASGFTFTDYSMNWVRQPPGKALEWLGFIRNKANDYTTEYSASVKGRFTISRDNSQSILYLQMNALRAEDSATYYCVRYPRYHAMDSWGQGTSVTVSS
VL: DIVLTQSPATLSVTPGDSVNLSCRASQSISNNLHWYQQKSHESPRLLIKYVFQSISGIPSRFSGSGSGTDFTLSINSVETEDFGMYFCQQSNSWPLTFGAGTKLELK
EphA2 tyrosine phosphorylation (EphA2): increased EphA2 phosphorylation; also recorded: promotes EphA2 tyrosine phosphorylation
Growth of MDA-MB-231 cells implanted subcutaneously [1]: inhibited
Mice that had died by day 36 ([1]; 6mg/ml intraperitoneally twice a week for 3 weeks, all control mice had died): 70%
Survival of the mice (percent of mice living each day post treatment) ([1]; 6mg/ml intraperitoneally twice a week for 3 weeks, versus PBS): A greater percentage of mice survived at each time point examined
Tumor growth (tumor volume divided by initial tumor volume) ([1]; 6mg/ml intraperitoneally twice a week for 3 weeks, versus PBS, after 30 days): smaller tumors than mice administered PBS; also recorded: inhibits tumor cell growth in vivo
